In paper PMC9303389, “On the stability of stalled RNA polymerase and its removal by RapA” (Nucleic Acids Research, 2022):

Substrate: Nc1ncnc2c1ncn2[C@@H]1O[C@H](COP(=O)(O)OP(=O)(O)OP(=O)(O)O)[C@@H](O)[C@H]1O
Assay: single-molecule magnetic trapping, stalled RNAP dissociation lifetime versus [ATP]
Assay type: biochemical, Escherichia coli
Settings: saturating RapA, RNAP stalled at +20 on positively supercoiled DNA, 0.3 pN, 200 μM GTP and UTP, 8 mM MgCl2, pH 8.0, 34°C, kcat is RNAP dissociation rate at saturating RapA and ATP, not ATP hydrolysis

B1: RapA-RNAP complex (Escherichia coli K-12) (protein)
chain: PFTLGQRWISDTESELGLGTVVAVDARTVTLLFPSTGENRLYARSDSPVTRVMFNPGDTITSHDGWQMQVEEVKEENGLLTYIGTRLDTEESGVALREVFLDSKLVFSKPQDRLFAGQIDRMDRFALRYRARKYSSEQFRMPYSGLRGQRTSLIPHQLNIAHDVGRRHAPRVLLADEVGLGKTIEAGMILHQQLLSGAAERVLIIVPETLQHQWLVEMLRRFNLRFALFDDERYAEAQHDAYNPFDTEQLVICSLDFARRSKQRLEHLCEAEWDLLVVDEAHHLVWSEDAPSREYQAIEQLAEHVPGVLLLTATPEQLGMESHFARLRLLDPNRFHDFAQFVEEQKNYRPVADAVAMLLAGNKLSNDELNMLGEMIGEQDIEPLLQAANSDSEDAQSARQELVSMLMDRHGTSRVLFRNTRNGVKGFPKRELHTIKLPLPTQYQTAIKVSGIMGARKSAEDRARDMLYPERIYQEFEGDNATWWNFDPRVEWLMGYLTSHRSQKVLVICAKAATALQLEQVLREREGIRAAVFHEGMSIIERDRAAAWFAEEDTGAQVLLCSEIGSEGRNFQFASHMVMFDLPFNPDLLEQRIGRLDRIGQAHDIQIHVPYLEKTAQSVLVRWYHEGLDAFEHTCPTGRTIYDSVYNDLINYLASPDQTEGFDDLIKNCREQHEALKAQLEQGRDRLLEIHSNGGEKAQALAESIEEQDDDTNLIAFAMNLFDIIGINQDDRGDNMIVLTPSDHMLVPDFPGLSEDGITITFDREVALAREDAQFITWEHPLIRNGLDLILSGDTGSSTISLLKNKALPVGTLLVELIYVVEAQAPKQLQLNRFLPPTPVRMLLDKNGNNLAAQVEFETFNRQLNAVNRHTGSKLVNAVQQDVHAILQLGEAQIEKSARALIDAARNEADEKLSAELSRLEALRAVNPNIRDDELTAIESNRQQVMESLDQAGWRLDALRLIVVTHQ
notes: full-length RapA, N-terminal His6 tag (pQE80L, expressed in BL21(DE3)), 110 kDa; RNAP core saturated with sigma70 (rpoD) for initiation, then stalled as elongation complex on DNA; with DNA-directed RNA polymerase subunit alpha; DNA-directed RNA polymerase subunit beta; DNA-directed RNA polymerase subunit beta'; DNA-directed RNA polymerase subunit omega
Km: 160 ± 35 µM
kcat: 1.1 × 10^–3 ± 0.5 × 10^–5 s^–1
